Reference: patent publication US20250076311A1 (Chugai, published 2025)
Numbering of substitutions follows the chain as printed. In names and notes the source's numbering stands.

T1: cynomolgus monkey FcγRIIa3 extracellular domain with C-terminal His-tag (cynomolgus monkey)
T1 construct: also called cyno FcgRIIa3; cynoFcγRIIa3
T1 chain: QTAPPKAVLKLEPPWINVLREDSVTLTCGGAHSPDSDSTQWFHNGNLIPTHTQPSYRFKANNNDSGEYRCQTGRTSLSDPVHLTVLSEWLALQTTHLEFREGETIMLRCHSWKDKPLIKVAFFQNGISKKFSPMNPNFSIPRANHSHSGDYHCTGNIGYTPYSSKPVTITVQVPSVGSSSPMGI

T2: cynomolgus monkey FcγRIIb extracellular domain with C-terminal His-tag (cynomolgus monkey)
T2 construct: also called cyno FcgRIIb; cynoFcγRIIb; not shown: His-tag added to C-terminus
T2 chain: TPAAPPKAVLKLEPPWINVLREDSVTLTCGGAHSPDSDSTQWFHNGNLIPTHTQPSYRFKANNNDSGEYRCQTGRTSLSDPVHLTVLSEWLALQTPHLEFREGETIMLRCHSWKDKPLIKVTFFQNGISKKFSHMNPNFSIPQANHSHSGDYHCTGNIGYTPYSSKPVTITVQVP

T3: human FcγRIIb extracellular domain with C-terminal His-tag (human, UniProt P31994 43-217)
T3 construct: also called human FcgRIIb; not shown: His-tag added to C-terminus
T3 sequence: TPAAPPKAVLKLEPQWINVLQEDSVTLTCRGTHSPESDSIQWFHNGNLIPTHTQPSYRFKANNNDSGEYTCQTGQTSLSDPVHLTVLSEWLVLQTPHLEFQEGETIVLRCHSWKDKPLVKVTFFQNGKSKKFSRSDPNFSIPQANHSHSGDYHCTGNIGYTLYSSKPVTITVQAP

T4: cynomolgus monkey FcγRIIa3 extracellular domain with C-terminal His-tag (cynomolgus monkey)
T4 construct: also called cyno FcgRIIa3; cynoFcγRIIa3; not shown: His-tag added to C-terminus
T4 chain: T1 chain

T5: human FcγRIIaR extracellular domain with C-terminal His-tag (human, UniProt P12318 34-217)
T5 construct: also called human FcgRIIaR; FcγRIIa (type R); not shown: His-tag added to C-terminus
T5 chain: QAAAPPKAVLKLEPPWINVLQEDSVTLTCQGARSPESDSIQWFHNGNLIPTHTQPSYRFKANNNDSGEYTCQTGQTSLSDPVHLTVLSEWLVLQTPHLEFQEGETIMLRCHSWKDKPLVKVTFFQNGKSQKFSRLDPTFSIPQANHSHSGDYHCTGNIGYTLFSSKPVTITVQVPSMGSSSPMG

T6: human FcγRIIb extracellular domain, His-tagged (human, UniProt P31994 43-217)
T6 construct: also called human FcgRIIb
T6 sequence: T3 sequence

T7: human FcγRIIaH extracellular domain, His-tagged (human, UniProt P12318 34-217)
T7 construct: also called human FcgRIIaH; FcγRIIa type H
T7 sequence: T5 chain with R134H

T8: human FcγRIIaR extracellular domain, His-tagged (human, UniProt P12318 34-217)
T8 construct: also called human FcgRIIaR; FcγRIIa type R
T8 chain: T5 chain

B1: M103205H795-MY468/M103202L889-SK1 (antibody)
chain 1: QVTLKESGPVLVKPTETLTLTCTVSGIDLSHDDISWVRQAPGKGLEWVGIISYAGSTYYASWAKGRLTISKDTSKNQVVLTMTNMDPVDTATYYCARGVPAYSHGGDLWGQGTLVTVSSASTKGPSVFPLAPSSKSTSGGTAALGCLVKDYFPEPVTVSWNSGALTSGVHTFPAVLQSSGLYSLSSVVTVPSSSLGTQTYICNVNHKPSNTKVDKKVEPKSCDKTHTCPPCPNPELLTGPSVFLFPPKPKDTLMISRTPEVTCVVVDVSDEDPEVKFNWYVDGVEVHNAKTKPREEQYNSTYRVVSVLTVLHQDWLNGKEYKCKVSNKALPKPIEKTISKAKGQPREPQVYTLPPSREEMTKNQVSLTCLVKGFYPSDIAVEWESNGQPENNYKTTPPVLDSDGSFFLYSKLTVDKSRWQQGNVFSCSVMHEALHNHYTQKSLSLSP
chain 2: DIVMTQSPATLSLSPGERATLSCTSSQSVYHANWLSWFQQKPGQPPKLLIYWASTLAYGVPSRFSGSGSGTDFTLTISSLQPEDAATYYCAGGYGGGRYAFGQGTKVEIKRTVAAPSVFIFPPSDEQLKSGTASVVCLLNNFYPREAKVQWKVDNALQSGNSQESVTEQDSKDSTYSLSSTLTLSKADYEKHKVYACEVTHQGLSSPVTKSFNRGEC
B2: M103205H795-MY452/M103202L889-SK1 (antibody, human IgG1, kappa)
heavy: B1 chain 1 with N233A, P234Q
light: B1 chain 2
notes: Substitutions in EU numbering on SG1
B3: M103205H795-MY176/M103202L889-SK1 (antibody, human IgG1, kappa, name in EU numbering)
heavy: B1 chain 1 with N233A, T238N, D270E, K332A, P398L
light: B1 chain 2
notes: EU numbering
B4: GpH7-B3 G236N / GpL16-k0 (antibody, human IgG1, kappa)
heavy: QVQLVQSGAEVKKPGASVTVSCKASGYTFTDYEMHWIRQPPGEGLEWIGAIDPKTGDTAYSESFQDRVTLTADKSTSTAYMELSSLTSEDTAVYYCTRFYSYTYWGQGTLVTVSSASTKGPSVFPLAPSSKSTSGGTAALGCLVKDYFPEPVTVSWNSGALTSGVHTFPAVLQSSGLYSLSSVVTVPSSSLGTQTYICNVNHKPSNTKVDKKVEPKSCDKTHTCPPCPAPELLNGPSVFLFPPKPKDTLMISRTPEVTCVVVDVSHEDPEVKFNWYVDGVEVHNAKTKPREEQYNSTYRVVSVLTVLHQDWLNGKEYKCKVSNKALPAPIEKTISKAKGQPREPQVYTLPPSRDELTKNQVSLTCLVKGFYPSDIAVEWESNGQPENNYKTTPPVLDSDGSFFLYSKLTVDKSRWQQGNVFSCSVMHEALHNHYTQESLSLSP
light: DIVMTQSPLSLPVTPGEPASISCQASESLVHSNRNTYLHWYLQKPGQSPQLLIYKVSNRFSGVPDRFSGSGSGTDFTLKISRVEAEDVGVYYCSQNTHVPPTFGQGTKVEIERTVAAPSVFIFPPSDEQLKSGTASVVCLLNNFYPREAKVQWKVDNALQSGNSQESVTEQDSKDSTYSLSSTLTLSKADYEKHKVYACEVTHQGLSSPVTKSFNRGEC
notes: also called B3 variant G236N
B5: GpH7-B3 S267H / GpL16-k0 (antibody, human IgG1, kappa)
heavy: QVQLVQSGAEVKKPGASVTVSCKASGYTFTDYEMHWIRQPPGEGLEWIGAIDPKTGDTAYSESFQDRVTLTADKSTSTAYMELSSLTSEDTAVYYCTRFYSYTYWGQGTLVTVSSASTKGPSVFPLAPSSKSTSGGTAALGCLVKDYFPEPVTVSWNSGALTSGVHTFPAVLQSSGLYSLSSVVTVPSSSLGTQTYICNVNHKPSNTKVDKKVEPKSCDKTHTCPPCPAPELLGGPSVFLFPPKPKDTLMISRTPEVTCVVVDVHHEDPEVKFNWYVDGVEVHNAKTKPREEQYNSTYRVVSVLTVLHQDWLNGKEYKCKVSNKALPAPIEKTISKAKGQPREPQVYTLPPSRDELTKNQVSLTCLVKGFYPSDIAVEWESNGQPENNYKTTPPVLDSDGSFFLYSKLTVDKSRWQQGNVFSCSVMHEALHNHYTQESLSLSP
light: B4 light
notes: also called B3 variant S267H
B6: GpH7-B3 P238Q / GpL16-k0 (antibody, human IgG1, kappa)
heavy: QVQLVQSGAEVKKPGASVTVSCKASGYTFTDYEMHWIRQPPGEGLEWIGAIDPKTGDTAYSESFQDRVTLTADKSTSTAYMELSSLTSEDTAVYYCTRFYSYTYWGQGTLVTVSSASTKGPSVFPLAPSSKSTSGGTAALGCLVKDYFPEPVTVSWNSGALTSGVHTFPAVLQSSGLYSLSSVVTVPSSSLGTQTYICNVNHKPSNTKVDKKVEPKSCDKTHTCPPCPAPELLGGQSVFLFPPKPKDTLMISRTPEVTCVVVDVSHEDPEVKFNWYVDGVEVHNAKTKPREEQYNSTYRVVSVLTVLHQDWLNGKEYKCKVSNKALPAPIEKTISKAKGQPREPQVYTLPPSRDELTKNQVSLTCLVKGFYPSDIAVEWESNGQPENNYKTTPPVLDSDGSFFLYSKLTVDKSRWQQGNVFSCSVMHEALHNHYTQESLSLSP
light: B4 light
notes: also called B3 variant P238Q
B7: GpH7-B3 S267L / GpL16-k0 (antibody, human IgG1, kappa)
heavy: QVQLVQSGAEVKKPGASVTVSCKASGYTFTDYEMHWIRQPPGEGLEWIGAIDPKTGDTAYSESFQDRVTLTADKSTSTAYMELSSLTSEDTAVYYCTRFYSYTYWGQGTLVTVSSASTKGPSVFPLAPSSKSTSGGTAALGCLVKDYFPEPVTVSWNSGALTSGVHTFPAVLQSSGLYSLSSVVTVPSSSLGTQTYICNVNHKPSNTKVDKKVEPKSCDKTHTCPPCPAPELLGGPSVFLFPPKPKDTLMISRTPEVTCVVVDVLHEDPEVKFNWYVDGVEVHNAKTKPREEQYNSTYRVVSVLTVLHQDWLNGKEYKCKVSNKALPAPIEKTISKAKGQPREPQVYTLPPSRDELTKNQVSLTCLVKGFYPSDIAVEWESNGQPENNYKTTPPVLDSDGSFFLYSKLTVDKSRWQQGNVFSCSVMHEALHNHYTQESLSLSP
light: B4 light
notes: also called B3 variant S267L
B8: GpH7-B3 G237D / GpL16-k0 (antibody, human IgG1, kappa)
heavy: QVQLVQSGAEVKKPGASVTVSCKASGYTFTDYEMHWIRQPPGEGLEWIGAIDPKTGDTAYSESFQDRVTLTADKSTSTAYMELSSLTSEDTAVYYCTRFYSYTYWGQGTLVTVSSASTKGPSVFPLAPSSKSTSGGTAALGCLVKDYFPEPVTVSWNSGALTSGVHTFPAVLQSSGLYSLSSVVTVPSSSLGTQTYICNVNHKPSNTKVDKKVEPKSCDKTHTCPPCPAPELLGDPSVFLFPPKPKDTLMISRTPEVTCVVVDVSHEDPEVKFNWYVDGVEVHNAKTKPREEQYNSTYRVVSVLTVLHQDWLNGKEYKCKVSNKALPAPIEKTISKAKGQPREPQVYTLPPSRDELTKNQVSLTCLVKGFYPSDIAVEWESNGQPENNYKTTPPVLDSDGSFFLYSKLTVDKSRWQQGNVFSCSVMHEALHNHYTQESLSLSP
light: B4 light
notes: also called B3 variant G237D
B9: GpH7-B3 A327I / GpL16-k0 (antibody, human IgG1, kappa)
heavy: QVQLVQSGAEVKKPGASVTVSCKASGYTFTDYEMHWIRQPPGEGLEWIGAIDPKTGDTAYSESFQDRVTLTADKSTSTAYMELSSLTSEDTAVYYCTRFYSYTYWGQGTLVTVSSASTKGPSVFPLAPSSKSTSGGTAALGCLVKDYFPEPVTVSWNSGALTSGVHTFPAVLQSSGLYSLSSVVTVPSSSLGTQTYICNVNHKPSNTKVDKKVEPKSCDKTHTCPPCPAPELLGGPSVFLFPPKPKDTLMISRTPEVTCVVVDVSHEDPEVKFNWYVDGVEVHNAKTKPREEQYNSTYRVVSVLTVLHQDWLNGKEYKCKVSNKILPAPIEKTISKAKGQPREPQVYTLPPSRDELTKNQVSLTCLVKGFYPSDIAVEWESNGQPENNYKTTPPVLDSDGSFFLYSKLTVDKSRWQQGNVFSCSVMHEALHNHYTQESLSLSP
light: B4 light
notes: also called B3 variant A327I
B10: GpH7-B3 N325E / GpL16-k0 (antibody, human IgG1, kappa)
heavy: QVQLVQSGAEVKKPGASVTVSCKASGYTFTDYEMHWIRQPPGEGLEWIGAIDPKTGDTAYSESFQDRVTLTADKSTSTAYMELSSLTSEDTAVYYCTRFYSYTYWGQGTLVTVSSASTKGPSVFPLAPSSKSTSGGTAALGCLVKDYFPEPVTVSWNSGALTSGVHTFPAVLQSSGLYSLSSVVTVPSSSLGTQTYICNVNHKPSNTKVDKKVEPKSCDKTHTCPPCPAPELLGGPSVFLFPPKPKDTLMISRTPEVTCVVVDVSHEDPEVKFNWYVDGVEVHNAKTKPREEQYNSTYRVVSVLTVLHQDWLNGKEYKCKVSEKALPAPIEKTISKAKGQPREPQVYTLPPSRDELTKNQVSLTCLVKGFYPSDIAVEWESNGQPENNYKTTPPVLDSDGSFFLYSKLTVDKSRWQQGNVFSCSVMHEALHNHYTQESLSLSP
light: B4 light
notes: also called B3 variant N325E
B11: GpH7-B3 P238E / GpL16-k0 (antibody, human IgG1, kappa)
heavy: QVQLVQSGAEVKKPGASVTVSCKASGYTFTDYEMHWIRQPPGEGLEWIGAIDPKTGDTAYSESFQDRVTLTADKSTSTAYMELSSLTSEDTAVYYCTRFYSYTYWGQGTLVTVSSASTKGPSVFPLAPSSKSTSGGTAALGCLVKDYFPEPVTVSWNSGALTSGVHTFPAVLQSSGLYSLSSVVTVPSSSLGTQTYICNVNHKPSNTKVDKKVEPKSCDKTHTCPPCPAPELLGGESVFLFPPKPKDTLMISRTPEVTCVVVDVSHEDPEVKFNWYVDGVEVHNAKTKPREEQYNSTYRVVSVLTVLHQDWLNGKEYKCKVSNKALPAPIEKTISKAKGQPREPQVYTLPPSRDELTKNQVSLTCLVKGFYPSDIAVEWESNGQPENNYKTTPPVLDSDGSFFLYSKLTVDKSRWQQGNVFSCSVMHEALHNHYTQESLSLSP
light: B4 light
notes: also called B3 variant P238E
B12: GpH7-B3 N325L / GpL16-k0 (antibody, human IgG1, kappa)
heavy: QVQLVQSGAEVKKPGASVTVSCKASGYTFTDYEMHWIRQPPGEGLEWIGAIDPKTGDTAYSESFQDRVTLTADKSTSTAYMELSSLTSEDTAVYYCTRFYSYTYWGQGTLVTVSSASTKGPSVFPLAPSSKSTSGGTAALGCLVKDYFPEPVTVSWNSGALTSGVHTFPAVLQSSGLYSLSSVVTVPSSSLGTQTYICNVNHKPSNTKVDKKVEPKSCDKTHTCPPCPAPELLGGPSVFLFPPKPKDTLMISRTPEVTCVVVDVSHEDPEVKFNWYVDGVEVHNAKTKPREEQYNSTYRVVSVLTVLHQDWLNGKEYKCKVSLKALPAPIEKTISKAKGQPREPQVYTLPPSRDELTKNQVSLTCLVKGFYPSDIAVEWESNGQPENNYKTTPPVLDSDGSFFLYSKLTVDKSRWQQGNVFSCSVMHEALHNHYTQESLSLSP
light: B4 light
notes: also called B3 variant N325L

Target: T1, cynomolgus monkey FcγRIIa3 …
Experiment: SPR (Biacore), KD of SG1 / KD of variant
Experimental: The kinetic analysis of interactions between these antibodies and FcγR was carried out using BIACORE® T200 or BIACORE® 4000 (GE Healthcare). HBS-EP+ (GE Healthcare) was used as the running buffer, and the measurement temperature was set to 25° C. […] After the measurement, the antibody captured on the chip was washed off by allowing reaction with 10 mM glycine-HCl, pH1.5 and 25 mM NaOH so that the chip was regenerated and used repeatedly. The sensorgrams obtained as measurement results were analyzed by the 1:1 Langmuir binding model using the BIACORE® Evaluation Software to calculate the binding rate constant ka (L/mol/s) and dissociation rate constant kd (1/s), and the dissociation constant KD (mol/L) was calculated from these values. […] Regarding such interactions, KD values were calculated using the following 1:1 binding model described in BIACORE® T100 Software Handbook BR1006-48 Edition AE.

Binder	KD fold (SG1 = 1) [fold]
B1	3.5
B2	2.6

Target: T2, cynomolgus monkey FcγRIIb extracellular …
Experiment: SPR Biacore, antibody captured, FcgR analyte

Binder	KD fold (SG1 = 1) [fold]
B3	1

target: T9, human FcγRIIIaV extracellular domain with C-terminal His-tag (human, UniProt P08637 17-208); experiment: SPR Biacore, antibody captured, FcgR analyte
T9 construct: also called human FcgRIIIaV; not shown: His-tag added to C-terminus
T9 sequence (P08637 17-208 F176V): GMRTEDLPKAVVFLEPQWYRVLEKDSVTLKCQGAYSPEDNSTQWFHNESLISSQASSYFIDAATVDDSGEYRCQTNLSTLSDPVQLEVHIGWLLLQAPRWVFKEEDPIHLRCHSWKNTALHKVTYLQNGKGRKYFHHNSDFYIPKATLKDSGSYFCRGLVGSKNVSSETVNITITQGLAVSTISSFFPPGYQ

Binder	Kd [µM]
B3	6.2

target: T3, human FcγRIIb extracellular domain with …; experiment: SPR Biacore, antibody captured, FcgR analyte

Binder	KD fold (SG1 = 1) [fold]	Kd [µM]
B3	6.5	0.7

Target: T4, cynomolgus monkey FcγRIIa3 …
Experiment: SPR Biacore, antibody captured, FcgR analyte

Binder	Kd [µM]
B3	6

Target: T5, human FcγRIIaR extracellular domain …
Experiment: SPR Biacore, antibody captured, FcgR analyte

Binder	KD fold (SG1 = 1) [fold]
B3	0.1

target: T10, cynomolgus monkey FcγRIIIaS extracellular domain with C-terminal His-tag (cynomolgus monkey, UniProt A3RFZ7 21-206 (rhesus entry)); experiment: SPR Biacore, antibody captured, FcgR analyte
T10 construct: also called cyno FcgRIIIaS; cynoFcγRIIIaS; not shown: His-tag added to C-terminus
T10 sequence (A3RFZ7 21-206): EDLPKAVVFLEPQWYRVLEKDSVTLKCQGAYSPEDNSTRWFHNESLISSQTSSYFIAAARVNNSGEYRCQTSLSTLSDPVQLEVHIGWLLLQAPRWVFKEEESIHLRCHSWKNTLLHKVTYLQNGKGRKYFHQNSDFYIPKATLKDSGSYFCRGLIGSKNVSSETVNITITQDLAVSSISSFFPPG

Binder	KD fold (SG1 = 1) [fold]	Kd [µM]
B3	0.16	2.2

target: T6, human FcγRIIb extracellular domain, …; experiment: SPR (Biacore), 25C, FcgR bound per antibody captured

Binder	Binding to human FcgRs (parent B3 = 100)
B4	75
B5	42
B6	43
B7	112
B8	95
B9	46
B10	40

target: T7, human FcγRIIaH extracellular domain, …; experiment: as above

Binder	Binding to human FcgRs (parent B3 = 100)
B4	54
B5	27
B6	19
B7	63
B8	74
B9	37
B10	49
B11	21
B12	93

target: T11, human FcγRIIIaV extracellular domain, His-tagged (human, UniProt P08637 17-208); experiment: as above
T11 construct: also called human FcgRIIIaV
T11 sequence (P08637 17-208 F176V): as the sequence (P08637 17-208 F176V) above

Binder	Binding to human FcgRs (parent B3 = 100)
B5	1
B6	-1
B7	2
B8	0
B10	4
B11	1
B12	0

Target: T8, human FcγRIIaR extracellular domain, …
Experiment: as above

Binder	Binding to human FcgRs (parent B3 = 100)
B4	81
B5	3
B6	4
B7	3
B8	0
B9	12
B10	13
B11	2
B12	13
